Results on 1 molecule are retold here after US6410248.

The series has as its target Zif268 zinc fingers 1-3 (wild type) (UniProt P08046 SEQ:1-90). In words: EMSA; 15 mM Hepes-NaOH pH 7.9, 50 mM KCl, 50 mM K glutamate, 50 mM K acetate, 5 mM MgCl2, 20 uM ZnSO4, no competitor DNA.

A word on the Kd: it is the equilibrium constant for the complex coming apart. Lower therefore signals higher affinity.

B1: Zif268 site (dsDNA)
DNA 1: CCAGTAGCGGGGGCGTCCTCG
DNA 2: CGAGGACGCCCCCGCTACTGG
For B1, the affinity, expressed as Kd, was 10 pM.
